Target: T1, short SARS-CoV-2 peptide (10 residues) of the ITC (SARS-CoV-2)
T1 chain: FKEELDKYFK
Assay: ITC

B1: WS6 (monoclonal antibody, IgG) (antibody, V domains shown)
VH: EVQFQQSGTVLARPGASVKMSCKASGYTFTNYWIHWVKQRPGQGLEYIGGTYPGNGDTTYNQKFKGKAKVTAVTPTSTAYMDLSSLTNEDSAVYYCTRTGSYFDYWGQGTTLTVSS
VL: QIVLTQSPAIMSASPGEKVTISCSATSSVSYIYWYQQRPGSSPKPWIYRTSNLASGVPVRFSGSGSGTSYSLTISNMEAEDAATYYCQQYQSYPPTFGAGTKLELK
In the case of B1, the Kd is reported as 22 nM.

Source: PMC9284671 (Structure (London, England : 1993), 2022)
